Laboratory results from patent US20030170875A1.

Target: wild type human norepinephrine transporter (human) (UniProt P23975)
Experiment: cell-based or functional assay

human norepinephrine transporter A457P mutant (from UniProt P23975 1-617)
[3H]NE uptake on cotransfection (% of wt alone): 59
